Laboratory results as given in article PMC5179001.

System: RovA (Yersinia pseudotuberculosis (YPIII?))
Assay: EMSA
Details: […]) at 25 C or 37 C, buffer

Substance	K half [nM]
rovA promoter fragment BS I (activating site)	6.01
rovA promoter fragment BS II (repressing site)	40.7
